Results reported in patent US20080138335A1 (Kyowa Kirin, published 2008).

Target: T1, CD40 expressed on Ramos [ATCC] cells (UniProt P25942 21-277, limits assumed)
T1 construct: whole, on cells; Target of all flow cytometry and CD95 assays; endogenous CD40 on the Ramos cell line
Experiment: flow cytometry (FACS) on Ramos cells expressing CD40, R-PE anti-human antibody

T1 sequence (P25942 21-277 limits assumed): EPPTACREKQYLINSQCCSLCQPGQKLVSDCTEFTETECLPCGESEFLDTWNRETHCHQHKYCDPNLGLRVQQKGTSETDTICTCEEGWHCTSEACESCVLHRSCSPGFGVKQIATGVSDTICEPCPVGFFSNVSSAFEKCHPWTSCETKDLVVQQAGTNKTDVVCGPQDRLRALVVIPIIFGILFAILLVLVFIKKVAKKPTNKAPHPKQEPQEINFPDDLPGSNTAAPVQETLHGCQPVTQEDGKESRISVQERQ

B1: 341-G [1/1/2/2] (antibody)
heavy: QVQLQQSGPGLVKPSQTLSLTCAISGDSVSSNSATWNWIRQSPSRDLEWLGRTYYRSKWYRDYVGSVKSRIIINPDTSNNQFSLQLNSVTPEDTAIYYCTRAQWLGGDYPYYYSMDVWGQGTTVTVSS
VL: EIVLTQSPATLSLSPGERATLSCRASQSVSSYLAWYQQKPGQAPRLLIYDASNRATGIPARFSGSGSGTDFTLTISSLEPEDFAVYYCQQRSNTFGPGTKVDIK
notes: also called IgG[1/1/2/2]; N5KG1122; not shown: human IgG1 heavy chain constant region, CH1 and hinge domains (EU 118-237), from vector N5KG1-Val Lark; human IgG2 heavy chain constant region, CH2 and CH3 domains (EU 238-446), from vector N5KG2
B1: binds.

B2: 341-G2Ser[Q274K] (antibody, human IgG2, kappa)
heavy: QVQLQQSGPGLVKPSQTLSLTCAISGDSVSSNSATWNWIRQSPSRDLEWLGRTYYRSKWYRDYVGSVKSRIIINPDTSNNQFSLQLNSVTPEDTAIYYCTRAQWLGGDYPYYYSMDVWGQGTTVTVSSASTKGPSVFPLAPCSRSTSESTAALGCLVKDYFPEPVTVSWNSGALTSGVHTFPAVLQSSGLYSLSSVVTVPSSNFGTQTYTCNVDHKPSNTKVDKTVERKCCVECPPCPAPPVAGPSVFLFPPKPKDTLMISRTPEVTCVVVDVSHEDPEVKFNWYVDGVEVHNAKTKPREEQFNSTFRVVSVLTVVHQDWLNGKEYKCKVSNKGLPASIEKTISKTKGQPREPQVYTLPPSREEMTKNQVSLTCLVKGFYPSDIAVEWESNGQPENNYKTTPPMLDSDGSFFLYSKLTVDKSRWQQGNVFSCSVMHEALHNHYTQKSLSLSPGK
light: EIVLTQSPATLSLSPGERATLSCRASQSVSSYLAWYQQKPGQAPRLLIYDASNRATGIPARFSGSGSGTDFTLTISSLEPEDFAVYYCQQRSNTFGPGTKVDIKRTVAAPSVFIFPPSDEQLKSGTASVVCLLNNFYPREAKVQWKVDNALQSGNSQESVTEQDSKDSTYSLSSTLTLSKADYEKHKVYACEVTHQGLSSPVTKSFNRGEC
notes: Made from the 341-G2Ser expression vector; also called N5KG2Ser-341-Q274K
B2: binds.

B3: 341-G2Ser[F296Y] (antibody, human IgG2, kappa)
heavy: QVQLQQSGPGLVKPSQTLSLTCAISGDSVSSNSATWNWIRQSPSRDLEWLGRTYYRSKWYRDYVGSVKSRIIINPDTSNNQFSLQLNSVTPEDTAIYYCTRAQWLGGDYPYYYSMDVWGQGTTVTVSSASTKGPSVFPLAPCSRSTSESTAALGCLVKDYFPEPVTVSWNSGALTSGVHTFPAVLQSSGLYSLSSVVTVPSSNFGTQTYTCNVDHKPSNTKVDKTVERKCCVECPPCPAPPVAGPSVFLFPPKPKDTLMISRTPEVTCVVVDVSHEDPEVQFNWYVDGVEVHNAKTKPREEQYNSTFRVVSVLTVVHQDWLNGKEYKCKVSNKGLPASIEKTISKTKGQPREPQVYTLPPSREEMTKNQVSLTCLVKGFYPSDIAVEWESNGQPENNYKTTPPMLDSDGSFFLYSKLTVDKSRWQQGNVFSCSVMHEALHNHYTQKSLSLSPGK
light: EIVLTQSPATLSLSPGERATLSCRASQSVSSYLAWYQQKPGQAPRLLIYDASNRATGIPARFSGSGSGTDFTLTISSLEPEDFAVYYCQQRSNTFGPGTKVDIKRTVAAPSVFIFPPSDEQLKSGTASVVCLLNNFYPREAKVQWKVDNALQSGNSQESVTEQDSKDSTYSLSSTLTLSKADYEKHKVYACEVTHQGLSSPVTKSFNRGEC
notes: Made from the 341-G2Ser expression vector; also called N5KG2Ser-341-F296Y
B3: binds.

B4: 341-G2Ser[F300Y] (antibody, human IgG2, kappa)
heavy: QVQLQQSGPGLVKPSQTLSLTCAISGDSVSSNSATWNWIRQSPSRDLEWLGRTYYRSKWYRDYVGSVKSRIIINPDTSNNQFSLQLNSVTPEDTAIYYCTRAQWLGGDYPYYYSMDVWGQGTTVTVSSASTKGPSVFPLAPCSRSTSESTAALGCLVKDYFPEPVTVSWNSGALTSGVHTFPAVLQSSGLYSLSSVVTVPSSNFGTQTYTCNVDHKPSNTKVDKTVERKCCVECPPCPAPPVAGPSVFLFPPKPKDTLMISRTPEVTCVVVDVSHEDPEVQFNWYVDGVEVHNAKTKPREEQFNSTYRVVSVLTVVHQDWLNGKEYKCKVSNKGLPASIEKTISKTKGQPREPQVYTLPPSREEMTKNQVSLTCLVKGFYPSDIAVEWESNGQPENNYKTTPPMLDSDGSFFLYSKLTVDKSRWQQGNVFSCSVMHEALHNHYTQKSLSLSPGK
light: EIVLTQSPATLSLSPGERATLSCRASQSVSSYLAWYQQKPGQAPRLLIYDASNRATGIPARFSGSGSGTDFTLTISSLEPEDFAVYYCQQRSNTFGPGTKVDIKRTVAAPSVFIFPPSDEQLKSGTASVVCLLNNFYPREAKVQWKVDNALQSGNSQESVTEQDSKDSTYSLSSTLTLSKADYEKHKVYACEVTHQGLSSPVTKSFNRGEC
notes: Made from the 341-G2Ser expression vector; also called N5KG2Ser-341-F300Y
B4: binds.

B5: 341-G2Ser[G327A] (antibody, human IgG2, kappa)
heavy: QVQLQQSGPGLVKPSQTLSLTCAISGDSVSSNSATWNWIRQSPSRDLEWLGRTYYRSKWYRDYVGSVKSRIIINPDTSNNQFSLQLNSVTPEDTAIYYCTRAQWLGGDYPYYYSMDVWGQGTTVTVSSASTKGPSVFPLAPCSRSTSESTAALGCLVKDYFPEPVTVSWNSGALTSGVHTFPAVLQSSGLYSLSSVVTVPSSNFGTQTYTCNVDHKPSNTKVDKTVERKCCVECPPCPAPPVAGPSVFLFPPKPKDTLMISRTPEVTCVVVDVSHEDPEVQFNWYVDGVEVHNAKTKPREEQFNSTFRVVSVLTVVHQDWLNGKEYKCKVSNKALPASIEKTISKTKGQPREPQVYTLPPSREEMTKNQVSLTCLVKGFYPSDIAVEWESNGQPENNYKTTPPMLDSDGSFFLYSKLTVDKSRWQQGNVFSCSVMHEALHNHYTQKSLSLSPGK
light: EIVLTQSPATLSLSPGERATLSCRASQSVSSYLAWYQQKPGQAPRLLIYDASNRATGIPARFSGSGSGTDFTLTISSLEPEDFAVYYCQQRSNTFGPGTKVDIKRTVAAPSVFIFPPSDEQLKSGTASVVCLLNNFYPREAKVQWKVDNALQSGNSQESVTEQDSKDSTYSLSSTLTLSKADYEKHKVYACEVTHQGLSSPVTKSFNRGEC
notes: Made from the 341-G2Ser expression vector; also called N5KG2Ser-341-G327A
B5: binds.

B6: 341-G2Ser[T339A] (antibody, human IgG2, kappa)
heavy: QVQLQQSGPGLVKPSQTLSLTCAISGDSVSSNSATWNWIRQSPSRDLEWLGRTYYRSKWYRDYVGSVKSRIIINPDTSNNQFSLQLNSVTPEDTAIYYCTRAQWLGGDYPYYYSMDVWGQGTTVTVSSASTKGPSVFPLAPCSRSTSESTAALGCLVKDYFPEPVTVSWNSGALTSGVHTFPAVLQSSGLYSLSSVVTVPSSNFGTQTYTCNVDHKPSNTKVDKTVERKCCVECPPCPAPPVAGPSVFLFPPKPKDTLMISRTPEVTCVVVDVSHEDPEVQFNWYVDGVEVHNAKTKPREEQFNSTFRVVSVLTVVHQDWLNGKEYKCKVSNKGLPASIEKTISKAKGQPREPQVYTLPPSREEMTKNQVSLTCLVKGFYPSDIAVEWESNGQPENNYKTTPPMLDSDGSFFLYSKLTVDKSRWQQGNVFSCSVMHEALHNHYTQKSLSLSPGK
light: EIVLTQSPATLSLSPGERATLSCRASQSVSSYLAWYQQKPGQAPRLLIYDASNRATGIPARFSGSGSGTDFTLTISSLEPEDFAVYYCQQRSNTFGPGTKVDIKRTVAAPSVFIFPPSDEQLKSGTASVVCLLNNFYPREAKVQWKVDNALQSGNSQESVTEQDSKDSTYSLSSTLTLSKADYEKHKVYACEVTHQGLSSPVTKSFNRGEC
notes: Made from the 341-G2Ser expression vector; also called N5KG2Ser-341-T339A
B6: binds.

B7: 341-G2Ser[V309L] (antibody, human IgG2, kappa)
heavy: QVQLQQSGPGLVKPSQTLSLTCAISGDSVSSNSATWNWIRQSPSRDLEWLGRTYYRSKWYRDYVGSVKSRIIINPDTSNNQFSLQLNSVTPEDTAIYYCTRAQWLGGDYPYYYSMDVWGQGTTVTVSSASTKGPSVFPLAPCSRSTSESTAALGCLVKDYFPEPVTVSWNSGALTSGVHTFPAVLQSSGLYSLSSVVTVPSSNFGTQTYTCNVDHKPSNTKVDKTVERKCCVECPPCPAPPVAGPSVFLFPPKPKDTLMISRTPEVTCVVVDVSHEDPEVQFNWYVDGVEVHNAKTKPREEQFNSTFRVVSVLTVLHQDWLNGKEYKCKVSNKGLPASIEKTISKTKGQPREPQVYTLPPSREEMTKNQVSLTCLVKGFYPSDIAVEWESNGQPENNYKTTPPMLDSDGSFFLYSKLTVDKSRWQQGNVFSCSVMHEALHNHYTQKSLSLSPGK
light: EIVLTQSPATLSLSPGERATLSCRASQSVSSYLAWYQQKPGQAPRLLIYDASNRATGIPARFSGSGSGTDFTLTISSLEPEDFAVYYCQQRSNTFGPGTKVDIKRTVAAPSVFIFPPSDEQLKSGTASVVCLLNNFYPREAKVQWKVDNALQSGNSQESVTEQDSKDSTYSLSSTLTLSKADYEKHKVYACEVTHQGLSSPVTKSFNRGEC
notes: Made from the 341-G2Ser expression vector; also called N5KG2Ser-341-V309L
B7: binds.

B8: 4D11-G[1133] (antibody, V domains shown)
VH: QLQLQESGPGLLKPSETLSLTCTVSGGSISSPGYYGGWIRQPPGKGLEWIGSIYKSGSTYHNPSLKSRVTISVDTSKNQFSLKLSSVTAADTAVYYCTRPVVRYFGWFDPWGQGTLVTVSS
VL: AIQLTQSPSSLSASVGDRVTITCRASQGISSALAWYQQKPGKAPKLLIYDASNLESGVPSRFSGSGSGTDFTLTISSLQPEDFATYYCQQFNSYPTFGQGTKVEIK
notes: also called IgG[1/1/3/3]; N5KG1133; not shown: human IgG1 heavy chain constant region, CH1 and hinge domains (EU 118-237), from vector N5KG1-Val Lark; human IgG3 heavy chain constant region, CH2 and CH3 domains (EU 238-446), from vector N5KG3
B8: binds.
